Holding throughout (assay): two-hybrid library CCmax;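 also: natural log of median RNA to DNA barcode read ratio; higher means stronger binding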
For test [1], the target named is T1, 4H3378-AA.
T1 chain: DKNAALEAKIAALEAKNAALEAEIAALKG

In test [2] the target is T2, 4H340-AA.
T2 chain: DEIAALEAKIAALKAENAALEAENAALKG
To be noted: mean of both orientations.

Test [3] deals with T3, 4H3413-AA.
T3 chain: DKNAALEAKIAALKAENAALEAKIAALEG
Particulars: mean of both orientations.

Test [4] addresses T4, 4H3588-AA.
T4 chain: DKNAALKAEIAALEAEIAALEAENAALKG
Particulars: mean of both orientations.

In test [5] the target is T5, 4H3606-AA.
T5 chain: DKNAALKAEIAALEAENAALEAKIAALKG
Particulars: mean of both orientations.

The target of test [6] is T6, 4H3631-AA.
T6 chain: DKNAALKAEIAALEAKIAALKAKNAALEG
To be noted: mean of both orientations.

The target in test [7] is T7, 4H3697-AA.
T7 chain: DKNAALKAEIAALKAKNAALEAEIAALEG
To be noted: mean of both orientations.

In test [8] the target is T8, 4H3718-AA.
T8 chain: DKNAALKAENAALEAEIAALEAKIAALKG
To be noted: mean of both orientations.

The target of test [9] is T9, 4H384-AA.
T9 chain: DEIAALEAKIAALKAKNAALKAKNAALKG
Particulars: mean of both orientations.

Test [10] has as its target T10, 4H3865-AA.
T10 chain: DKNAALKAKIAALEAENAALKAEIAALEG
To be noted: mean of both orientations.

The target in test [11] is T11, 4H697-AA.
T11 chain: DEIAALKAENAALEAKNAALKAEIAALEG
Particulars: mean of both orientations.

Test [12] concerns the target T12, 4H982-AA.
T12 chain: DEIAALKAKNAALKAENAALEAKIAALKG
To be noted: mean of both orientations.

Test [13] deals with T13, 4H3438-AA.
T13 chain: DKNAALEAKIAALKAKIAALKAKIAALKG

Test [14] has as its target T14, 4H347-AA.
T14 chain: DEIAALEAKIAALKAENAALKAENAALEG
Particulars: mean of both orientations.

In test [15] the target is T15, 4H406-AA.
T15 chain: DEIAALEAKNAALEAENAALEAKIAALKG
To be noted: mean of both orientations.

The target of test [16] is T16, 4H452-AA.
T16 chain: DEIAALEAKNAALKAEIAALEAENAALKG
Particulars: mean of both orientations.

In test [17] the target is T17, 4H56-AA.
T17 chain: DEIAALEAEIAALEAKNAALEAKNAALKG
Particulars: mean of both orientations.

For test [18], the target named is T18, 4H_APH.
T18 chain: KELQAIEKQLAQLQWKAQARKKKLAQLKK
Particulars: mean of both orientations.

Test [19] deals with T19, 4H_BCR.
T19 chain: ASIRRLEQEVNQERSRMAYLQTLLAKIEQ
Particulars: mean of both orientations.

The target of test [20] is 4H_GCN4. To be noted: mean of both orientations.
4H_GCN4, sequence (chain, as listed by the source): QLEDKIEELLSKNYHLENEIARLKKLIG
Test [21] deals with GCN2_T. Particulars: mean of both orientations.
The target of test [22] is T20, APC6088-AA.
T20 chain: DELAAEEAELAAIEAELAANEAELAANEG

Test [23] concerns the target T21, APC7524-AA.
T21 chain: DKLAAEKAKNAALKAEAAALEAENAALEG
To be noted: mean of both orientations.

Test [24] addresses T22, APC8401-AA.
T22 chain: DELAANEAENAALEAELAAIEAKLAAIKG
Particulars: mean of both orientations.

For test [25], the target named is T23, APC8516-AA.
T23 chain: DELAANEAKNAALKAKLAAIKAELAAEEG
To be noted: mean of both orientations.

Test [26] concerns the target T24, APC9141-AA.
T24 chain: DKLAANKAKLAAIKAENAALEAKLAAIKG
To be noted: mean of both orientations.

Test [27] concerns the target T25, APC9182-AA.
T25 chain: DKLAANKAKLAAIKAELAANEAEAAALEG
Particulars: mean of both orientations.

In test [28] the target is T26, APC9291-AA.
T26 chain: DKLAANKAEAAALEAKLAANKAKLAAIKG
Particulars: mean of both orientations.

Test [29] deals with T27, APC9806-AA.
T27 chain: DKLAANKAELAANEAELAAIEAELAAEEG
Particulars: mean of both orientations.

For test [30], the target named is T28, 4H3446-AA.
T28 chain: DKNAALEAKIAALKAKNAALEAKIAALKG

The target in test [31] is T29, 4H3591-AA.
T29 chain: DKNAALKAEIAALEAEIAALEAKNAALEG
Particulars: mean of both orientations.

For test [32], the target named is T30, 4H3628-AA.
T30 chain: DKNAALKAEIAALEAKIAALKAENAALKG
To be noted: mean of both orientations.

Test [33] has as its target T31, 4H3666-AA.
T31 chain: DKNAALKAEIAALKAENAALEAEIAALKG
Particulars: mean of both orientations.

Test [34] concerns the target T32, 4H3709-AA.
T32 chain: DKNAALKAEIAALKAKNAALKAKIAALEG
To be noted: mean of both orientations.

Test [35] concerns the target T33, 4H391-AA.
T33 chain: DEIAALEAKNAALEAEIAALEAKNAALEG
Particulars: mean of both orientations.

Test [36] has as its target T34, 4H3920-AA.
T34 chain: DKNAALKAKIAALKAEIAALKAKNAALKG
To be noted: mean of both orientations.

In test [37] the target is T35, 4H3939-AA.
T35 chain: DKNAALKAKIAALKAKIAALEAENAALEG
To be noted: mean of both orientations.

The target in test [38] is T36, 4H428-AA.
T36 chain: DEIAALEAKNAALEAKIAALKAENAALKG
Particulars: mean of both orientations.

The target of test [39] is T37, 4H478-AA.
T37 chain: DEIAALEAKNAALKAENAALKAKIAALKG
To be noted: mean of both orientations.

Test [40] concerns the target T38, 4H497-AA.
T38 chain: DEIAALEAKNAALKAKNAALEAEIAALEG
To be noted: mean of both orientations.

Test [41] concerns the target T39, 4H656-AA.
T39 chain: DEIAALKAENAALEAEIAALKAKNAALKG
Particulars: mean of both orientations.

The target in test [42] is T40, 4H675-AA.
T40 chain: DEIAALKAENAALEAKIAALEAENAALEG
Particulars: mean of both orientations.

In test [43] the target is T41, 4H971-AA.
T41 chain: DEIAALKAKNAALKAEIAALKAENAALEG
To be noted: mean of both orientations.

Test [44] concerns the target T42, 4H32-AA.
T42 chain: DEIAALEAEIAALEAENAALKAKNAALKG

The text below walks through data of PMC10397247.

Where two headings read alike, the source gives them in different places.

B1: 4H3378-AA (peptide)
chain: DKNAALEAKIAALEAKNAALEAEIAALKG
As for B1, the interaction score in test [1] was 1.2; in test [2], -1.86; in [3], -1.24; in test [4] it was -1.31; in test [5], -0.302; in [6], -1.65. Further, the interaction score in [7] was -1.32; in test [8], -1.79; in [9], -1.9; in test [10], -0.877; in [11], -2.13; in test [12], -1.5.

B2: 4H3438-AA (peptide)
chain: DKNAALEAKIAALKAKIAALKAKIAALKG
For B2, the interaction score in test [13] was 0.922; in test [14], -0.916; in [15] it was -1.51; in test [16], -0.716; in [17], 0.462; in test [18] it was -1.5. In addition, the interaction score in test [19] was -1.47; in test [20], -1.68; in test [21], -1.

B3: APC6088-AA (peptide)
chain: DELAAEEAELAAIEAELAANEAELAANEG
In the case of B3, the interaction score in [22] was -1.3; in test [23], -1.52; in test [24], -1.56; in [25], -2.19; in test [26], -1.67; in test [27], -1.84. Also, the interaction score was -1.58 in test [28] and -1.36 in test [29].

B4: 4H3446-AA (peptide)
chain: DKNAALEAKIAALKAKNAALEAKIAALKG
As for B4, the interaction score was -0.619 in test [30]; -0.816 in [31]; -1.96 in test [32]; 0.18 in [33]; -0.0647 in test [34]; 0.726 in [35]. In addition, the interaction score in test [36] is -1.52; in test [37], -1.83; in [38], -0.892; in test [39], -1.66; in test [40] it was -1.57; in test [41], -0.701. In addition, the interaction score in [42] was -0.821; in test [43] it was -1.14.

B5: 4H32-AA (peptide)
chain: DEIAALEAEIAALEAENAALKAKNAALKG
In the case of B5, the interaction score in test [44] was 0.0438; in test [1] (mean of both orientations), -1.84; in [2] it was 1.89; in [3], 0.814; in [4] it was -0.686; in test [5], -0.292. Also, the interaction score is -0.675 in test [6]; -0.509 in [7]; -0.924 in [8]; 1.2 in test [9]; 1.4 in test [10]; -1.89 in test [11]. The interaction score in [12] is -0.329.
